The target in test [1] is T1, human H7CR (B7-H7 counter-receptor) (human, UniProt Q96BF3 23-282).
T1 construct: Used for H7CR on CHO.hH7CR transfectants, human T cells and tonsil tissue; also called B7-H7CR; CD28H
T1 sequence: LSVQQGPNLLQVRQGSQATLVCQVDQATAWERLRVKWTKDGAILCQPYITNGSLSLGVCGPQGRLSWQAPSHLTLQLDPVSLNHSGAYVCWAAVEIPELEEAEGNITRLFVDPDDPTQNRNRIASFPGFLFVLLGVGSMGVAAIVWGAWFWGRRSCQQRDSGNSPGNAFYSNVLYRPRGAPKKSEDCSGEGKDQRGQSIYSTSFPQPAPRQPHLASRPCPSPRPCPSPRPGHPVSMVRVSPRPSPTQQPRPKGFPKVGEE
Put plainly: binding to human H7CR as endogenously expressed on the surface of a cell.

The target in test [2] is T2, H7CR-GFP fusion protein on transfected CHO cells (Homo sapiens (Human), UniProt Q96BF3 23-282).
T2 construct: not shown: GFP part
T2 sequence: T1 sequence
Put plainly: flow cytometry, 5 µg/ml variant on H7CR-GFP transfected CHO cells, anti-hIg PE secondary antibody [row HC1-3, column LC1-1]. As for the experimental part:
(§1) 5 μg/ml antibodies from thirty-six variants were incubated with H7CR-GFP fusion protein transfected CHO cells for 30 min at room temperature. Cells were then washed twice with 2 ml flow cytometry buffer, and resuspended in 100 μl flow cytometry buffer. 1 μl anti-hIg PE secondary antibody (Biolegend) was added and incubated with the cells for 15 mins Samples were then washed and resuspended in 100 μl flow cytometry buffer. Flow Cytometry data was acquired using BD Canto (BD Biosciences) in plate format and analyzed by FlowJo software.

Test [3] has as its target T2, H7CR-GFP fusion protein on transfected …. As to the kind of experiment: flow cytometry, 5 µg/ml variant on H7CR-GFP transfected CHO cells, anti-hIg PE secondary antibody [row HC2-2, column LC1-2]. As for the experimental part: as §1
Background: A flow cytometer gives signals particle by particle.

For test [4] the target is unchanged. As to the kind of experiment: flow cytometry, 5 µg/ml variant on H7CR-GFP transfected CHO cells, anti-hIg PE secondary antibody [row HC1-2, column LC2-2]. The method, then:
as §1

The target is the same in test [5]. Put plainly: flow cytometry, 5 µg/ml variant on H7CR-GFP transfected CHO cells, anti-hIg PE secondary antibody [row HC1-3, column LC1-2]. As for the experimental part: as §1
For test [6] the target is unchanged. As to the kind of experiment: flow cytometry, 5 µg/ml variant on H7CR-GFP transfected CHO cells, anti-hIg PE secondary antibody [row HC2-2, column LC1-1]. As for the experimental part: as §1
Test [7] shares this target. Put plainly: flow cytometry, 5 µg/ml variant on H7CR-GFP transfected CHO cells, anti-hIg PE secondary antibody [row HC1-3, column LC1-3]. As for the experimental part: as §1
For test [8] the target is unchanged. As to the kind of experiment: flow cytometry, 5 µg/ml variant on H7CR-GFP transfected CHO cells, anti-hIg PE secondary antibody [row HC2-1, column LC1-2]. The method, then:
as §1

Test [9] shares this target. Put plainly: flow cytometry, 5 µg/ml variant on H7CR-GFP transfected CHO cells, anti-hIg PE secondary antibody [row HC2-1, column LC1-3]. The method, then:
as §1

Test [10] has the same target. As to the kind of experiment: flow cytometry, 5 µg/ml variant on H7CR-GFP transfected CHO cells, anti-hIg PE secondary antibody [row HC1-3, column LC2-1]. As for the experimental part:
as §1

Test [11] shares this target. As to the kind of experiment: flow cytometry, 5 µg/ml variant on H7CR-GFP transfected CHO cells, anti-hIg PE secondary antibody [row HC1-3, column LC2-2]. The method, then:
as §1

For test [12] the target is unchanged. Put plainly: flow cytometry, 5 µg/ml variant on H7CR-GFP transfected CHO cells, anti-hIg PE secondary antibody [row HC1-2, column LC2-3]. The method, then: as §1
Test [13] has the same target. As to the kind of experiment: flow cytometry, 5 µg/ml variant on H7CR-GFP transfected CHO cells, anti-hIg PE secondary antibody [row HC1-3, column LC2-3]. The method, then:
as §1

The target is the same in test [14]. Put plainly: flow cytometry, 5 µg/ml variant on H7CR-GFP transfected CHO cells, anti-hIg PE secondary antibody [row HC2-1, column LC1-1]. As for the experimental part:
as §1

Test [15] shares this target. As to the kind of experiment: flow cytometry, 5 µg/ml variant on H7CR-GFP transfected CHO cells, anti-hIg PE secondary antibody [row HC2-1, column LC2-1]. The method, then:
as §1

Test [16] has the same target. As to the kind of experiment: flow cytometry, 5 µg/ml variant on H7CR-GFP transfected CHO cells, anti-hIg PE secondary antibody [row HC2-1, column LC2-2]. The method, then:
as §1

Test [17] shares this target. Put plainly: flow cytometry, 5 µg/ml variant on H7CR-GFP transfected CHO cells, anti-hIg PE secondary antibody [row HC2-1, column LC2-3]. As for the experimental part:
as §1

Results on 16 molecules are retold here after patent publication US20160024210A1 (AstraZeneca / MedImmune, published 2016).

Changes are numbered by the printed parent chain.

B1: 4.5 humanized variant 13 (HC1-3 / LC1-1) (antibody, V domains shown)
VH: QVQLQESGPGLVKPSQTLSLTCTVSGFSITTGGYYWNWIRQFPGKKLEWMGYIYTSGRTSYNPSLKSRVTISRDTSKNQFSLKLSSVTAADTAVYYCADMADKGGWFAYWGQGTLVTVSS
VL: DIVMTQSPDSLAVSLGERATINCKSSQSLFSSNTKRNYLAWYQQKPGQPPKLLIYHASTRESGVPDRFSGSGSGTDFTLTISSLQAEDVAVYYCQQHYETPLTFGQGTRLEIK
notes: Variable domains only; detected with anti-hIg secondary; also called VH1C / VL1A
Regarding B1, the binding result in [1] and in test [2] was “binds” each time.

B2: 4.5 humanized variant 26 (HC2-2 / LC1-2) (antibody, V domains shown)
VH: QITLKESGPTLVKPTQTLTLTCTVSGFSITTGGYYWNWIRQPPGKKLEWLALIYTSGRTSYNPSLKSRLTITKDTSKNQVVLTMTNMDPVDTATYYCADMADKGGWFAYWGQGTLVTVSS
VL: B1 VL with A40N, E61L, V91D, Y93F, Q106D
notes: Variable domains only; detected with anti-hIg secondary; also called VH2B / VL1B
For B2, the binding result in test [1] and in test [3] was “binds” in each case.

B3: 4.5 humanized variant 11 (HC1-2 / LC2-2) (antibody, V domains shown)
VH: B1 VH with F42H, M50I
VL: DIVMTQTPLSLPVTPGEPASISCRSSQSLFSSNTKRNYLNWYLQKPGQSPKLLIYHASTRLSGVPDRFSGSGSGTDFTLKISRVEAEDVGDYFCQQHYETPLTFGDGTRLEIK
notes: Variable domains only; detected with anti-hIg secondary; also called VH1B / VL2B
As to B3, the binding result in [1] and in test [4] was “binds” in each case.

B4: 4.5 humanized variant 14 (HC1-3 / LC1-2) (antibody, V domains shown)
VH: B1 VH
VL: B1 VL with A40N, E61L, V91D, Y93F, Q106D
notes: Variable domains only; detected with anti-hIg secondary; also called VH1C / VL1B
Turning to B4, the binding result in test [1] and in test [5] was “binds” each time.

B5: 4.5 humanized variant 25 (HC2-2 / LC1-1) (antibody, V domains shown)
VH: B2 VH
VL: B1 VL
notes: Variable domains only; detected with anti-hIg secondary; also called VH2B / VL1A
Take B5: the binding result in test [1] and in test [6] was “binds” throughout.

B6: 4.5 humanized variant 15 (HC1-3 / LC1-3) (antibody, V domains shown)
VH: B1 VH
VL: B1 VL with K24L, A40N, P49S, E61L, V91D, Y93F, Q106D
notes: Variable domains only; detected with anti-hIg secondary; also called VH1C / VL1C
In the case of B6, the binding result in test [7] and in test [1] was “binds” in each case.

B7: 4.5 humanized variant 20 (HC2-1 / LC1-2) (antibody, V domains shown)
VH: B2 VH with V24F, W36V, N37G, K46A, S60R, N62S
VL: B1 VL with A40N, E61L, V91D, Y93F, Q106D
notes: Variable domains only; detected with anti-hIg secondary; also called VH2A / VL1B
Take B7: the binding result in [1] and in test [8] was “binds” in each case.

B8: 4.5 humanized variant 21 (HC2-1 / LC1-3) (antibody, V domains shown)
VH: B2 VH with V24F, W36V, N37G, K46A, S60R, N62S
VL: B1 VL with K24L, A40N, P49S, E61L, V91D, Y93F, Q106D
notes: Variable domains only; detected with anti-hIg secondary; also called VH2A / VL1C
As to B8, the binding result in test [1] and in test [9] was “binds” throughout.

B9: 4.5 humanized variant 16 (HC1-3 / LC2-1) (antibody, V domains shown)
VH: B1 VH
VL: B3 VL with N40D, K51Q, T59Y, L61A, D91V, F93Y, D106Q
notes: Variable domains only; detected with anti-hIg secondary; also called VH1C / VL2A
As to B9, the binding result in test [1] and in test [10] was “binds” in each case.

B10: 4.5 humanized variant 17 (HC1-3 / LC2-2) (antibody, V domains shown)
VH: B1 VH
VL: B3 VL
notes: Variable domains only; detected with anti-hIg secondary; also called VH1C / VL2B
In the case of B10, the binding result in test [1] and in test [11] was “binds” each time.

B11: 4.5 humanized variant 12 (HC1-2 / LC2-3) (antibody, V domains shown)
VH: B1 VH with F42H, M50I
VL: B3 VL with L9S, R24L
notes: Variable domains only; detected with anti-hIg secondary; also called VH1B / VL2C
With B11, the binding result in test [1] and in [12] was “binds” in each case.

B12: 4.5 humanized variant 18 (HC1-3 / LC2-3) (antibody, V domains shown)
VH: B1 VH
VL: B3 VL with L9S, R24L
notes: Variable domains only; detected with anti-hIg secondary; also called VH1C / VL2C
With B12, the binding result in test [1] and in test [13] was “binds” throughout.

B13: 4.5 humanized variant 19 (HC2-1 / LC1-1) (antibody, V domains shown)
VH: B2 VH with V24F, W36V, N37G, K46A, S60R, N62S
VL: B1 VL
notes: Variable domains only; detected with anti-hIg secondary; also called VH2A / VL1A
Turning to B13, the binding result in test [1] and in test [14] was “binds” in each case.

B14: 4.5 humanized variant 22 (HC2-1 / LC2-1) (antibody, V domains shown)
VH: B2 VH with V24F, W36V, N37G, K46A, S60R, N62S
VL: B3 VL with N40D, K51Q, T59Y, L61A, D91V, F93Y, D106Q
notes: Variable domains only; detected with anti-hIg secondary; also called VH2A / VL2A
As for B14, the binding result in test [1] and in [15] was “binds” throughout.

B15: 4.5 humanized variant 23 (HC2-1 / LC2-2) (antibody, V domains shown)
VH: B2 VH with V24F, W36V, N37G, K46A, S60R, N62S
VL: B3 VL
notes: Variable domains only; detected with anti-hIg secondary; also called VH2A / VL2B
For the molecule B15, the binding result in test [1] and in [16] was “binds” throughout.

B16: 4.5 humanized variant 24 (HC2-1 / LC2-3) (antibody, V domains shown)
VH: B2 VH with V24F, W36V, N37G, K46A, S60R, N62S
VL: B3 VL with L9S, R24L
notes: Variable domains only; detected with anti-hIg secondary; also called VH2A / VL2C
For the molecule B16, the binding result in test [1] and in test [17] was “binds” each time.
